The target of one assay is T1, 4H2518-bN.
T1 chain: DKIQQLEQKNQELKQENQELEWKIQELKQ
Briefly: two-hybrid library CCNG1.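 Note: natural log of median RNA to DNA barcode read ratio; higher means stronger binding.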

The next assay addresses T2, 4H949-bN.
T2 chain: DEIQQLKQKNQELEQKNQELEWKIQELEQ
Briefly: two-hybrid library CCNG1.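 Note: natural log of median RNA to DNA barcode read ratio; higher means stronger binding.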

A further assay concerns the target T3, 4H2859-bN.
T3 chain: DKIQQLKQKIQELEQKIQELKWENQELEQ
Briefly: two-hybrid library CCNG1.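 Note: natural log of median RNA to DNA barcode read ratio; higher means stronger binding.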

In another assay the target is T4, 4H730-bN.
T4 chain: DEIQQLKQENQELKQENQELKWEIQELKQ
Put plainly: two-hybrid library CCNG1.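 Note: natural log of median RNA to DNA barcode read ratio; higher means stronger binding.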

A further assay concerns the target T5, 4H3041-bN.
T5 chain: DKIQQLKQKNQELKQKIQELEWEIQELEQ
Briefly: two-hybrid library CCNG1.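 Note: natural log of median RNA to DNA barcode read ratio; higher means stronger binding.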

A further assay concerns the target T6, 4H2931-bN.
T6 chain: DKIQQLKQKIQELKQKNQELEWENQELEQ
Put plainly: two-hybrid library CCNG1.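 Note: natural log of median RNA to DNA barcode read ratio; higher means stronger binding.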

The target in a further assay is T7, 4H235-bN.
T7 chain: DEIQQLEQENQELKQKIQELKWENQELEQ
Briefly: two-hybrid library CCNG1.

For another assay, the target named is T8, 4H2585-bN.
T8 chain: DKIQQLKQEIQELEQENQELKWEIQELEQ
Put plainly: two-hybrid library CCNG1.

The target of a further assay is T9, 4H2760-bN.
T9 chain: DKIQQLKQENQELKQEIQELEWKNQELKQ
Briefly: two-hybrid library CCNG1.

Another assay has as its target T10, 4H2444-bN.
T10 chain: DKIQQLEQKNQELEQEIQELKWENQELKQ
Briefly: two-hybrid library CCNG1.

The target of another assay is T11, 4H3364-bN.
T11 chain: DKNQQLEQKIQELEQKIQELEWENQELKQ
Briefly: two-hybrid library CCNG1.

Another assay deals with T12, 4H56-bN.
T12 chain: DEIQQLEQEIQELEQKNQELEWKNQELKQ
Put plainly: two-hybrid library CCNG1.

Another assay addresses T13, 4H796-bN.
T13 chain: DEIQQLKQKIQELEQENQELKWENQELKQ
Put plainly: two-hybrid library CCNG1.

The next assay concerns the target T14, 4H3297-bN.
T14 chain: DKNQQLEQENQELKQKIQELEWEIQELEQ
Briefly: two-hybrid library CCNG1.

The next assay addresses T15, 4H264-bN.
T15 chain: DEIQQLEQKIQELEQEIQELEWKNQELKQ
Put plainly: two-hybrid library CCNG1.

The next assay has as its target T16, 4H932-bN.
T16 chain: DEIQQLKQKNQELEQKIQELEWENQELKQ
Briefly: two-hybrid library CCNG1.

The target of a further assay is T17, 4H3381-bN.
T17 chain: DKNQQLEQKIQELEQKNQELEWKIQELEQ
Briefly: two-hybrid library CCNG1.

For another assay, the target named is T18, 4H349-bN.
T18 chain: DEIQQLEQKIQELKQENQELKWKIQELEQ
Briefly: two-hybrid library CCNG1.

In the next assay the target is T19, 4H662-AA.
T19 chain: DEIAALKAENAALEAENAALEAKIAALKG
Put plainly: two-hybrid library CCmax. The conditions noted are these: mean of both orientations.

The target of the next assay is T20, 4H327-AA.
T20 chain: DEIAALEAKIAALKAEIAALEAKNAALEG
Briefly: two-hybrid library CCmax. The conditions noted are these: mean of both orientations.

The target of the next assay is T21, 4H481-AA.
T21 chain: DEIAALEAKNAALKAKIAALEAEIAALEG
Briefly: two-hybrid library CCmax. Particulars: mean of both orientations.

The next assay has as its target T22, 4H3625-AA.
T22 chain: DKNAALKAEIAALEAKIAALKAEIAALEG
Briefly: two-hybrid library CCmax. The conditions noted are these: mean of both orientations.

The target of another assay is T23, 4H2513-AA.
T23 chain: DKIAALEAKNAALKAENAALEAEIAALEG
Put plainly: two-hybrid library CCmax. The conditions noted are these: mean of both orientations.

The next assay addresses T24, 4H2726-AA.
T24 chain: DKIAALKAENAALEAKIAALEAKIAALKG
Put plainly: two-hybrid library CCmax. Particulars: mean of both orientations.

For the next assay, the target named is T25, 4H2608-AA.
T25 chain: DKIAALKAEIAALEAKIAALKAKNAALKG
Put plainly: two-hybrid library CCmax. Particulars: mean of both orientations.

A further assay concerns the target T26, 4H2614-AA.
T26 chain: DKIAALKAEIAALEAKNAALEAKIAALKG
Put plainly: two-hybrid library CCmax. Particulars: mean of both orientations.

For another assay, the target named is T27, 4H55-AA.
T27 chain: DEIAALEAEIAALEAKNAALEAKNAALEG
Briefly: two-hybrid library CCmax. Particulars: mean of both orientations.

A further assay concerns the target T28, 4H2238-AA.
T28 chain: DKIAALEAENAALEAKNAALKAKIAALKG
Briefly: two-hybrid library CCmax. The conditions noted are these: mean of both orientations.

For another assay, the target named is T29, 4H3605-AA.
T29 chain: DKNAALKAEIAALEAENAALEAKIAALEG
Briefly: two-hybrid library CCmax. The conditions noted are these: mean of both orientations.

A further assay deals with T30, 4H2211-AA.
T30 chain: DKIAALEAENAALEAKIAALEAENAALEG
Briefly: two-hybrid library CCmax.

Another assay has as its target T31, 4H3922-AA.
T31 chain: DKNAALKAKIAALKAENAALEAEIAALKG
Briefly: two-hybrid library CCmax. Particulars: mean of both orientations.

A further assay has as its target T32, 4H3664-AA.
T32 chain: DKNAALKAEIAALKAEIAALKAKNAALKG
Put plainly: two-hybrid library CCmax. Particulars: mean of both orientations.

The next assay addresses T33, 4H4033-AA.
T33 chain: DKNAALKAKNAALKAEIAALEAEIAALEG
Briefly: two-hybrid library CCmax. Particulars: mean of both orientations.

The target in a further assay is T34, 4H369-AA.
T34 chain: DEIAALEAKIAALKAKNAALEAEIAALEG
Briefly: two-hybrid library CCmax. The conditions noted are these: mean of both orientations.

The next assay has as its target T35, 4H2536-AA.
T35 chain: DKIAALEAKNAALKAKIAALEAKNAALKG
Put plainly: two-hybrid library CCmax. The conditions noted are these: mean of both orientations.

A further assay addresses T36, 4H2935-AA.
T36 chain: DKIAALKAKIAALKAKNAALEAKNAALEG
Briefly: two-hybrid library CCmax. The conditions noted are these: mean of both orientations.

In the case of DEIQQLEQENQELKQKIQELKWENQELEQ [4H235-bN], the interaction score was -0.299 in the assay with 4H2518-bN; -0.438 with 4H949-bN; 0.00948 in the assay with 4H2859-bN; -1.94 with 4H730-bN; -0.319 in the assay with 4H3041-bN; -1.14 in the assay with 4H2931-bN. The interaction score is 0.562 with 4H235-bN; -0.77 with 4H2585-bN; 2.03 with 4H2760-bN; -0.884 in the assay with 4H2444-bN; 0.709 with 4H3364-bN; -0.626 in the assay with 4H56-bN. Further, the interaction score with 4H796-bN was -0.458; with 4H3297-bN it was -0.527; with 4H264-bN, -0.206; with 4H932-bN, -0.682; in the assay with 4H3381-bN, -1.48; with 4H349-bN, -0.0107.
As to DKIAALEAENAALEAKIAALEAENAALEG [4H2211-AA], the interaction score with 4H662-AA was -1.54; with 4H327-AA it was -1.1; with 4H481-AA, 1.2; with 4H3625-AA, -1.16; in the assay with 4H2513-AA, -1.48; in the assay with 4H2726-AA, 0.569. Further, the interaction score with 4H2608-AA was -0.966; with 4H2614-AA, -1.44; with 4H55-AA, -1.44; in the assay with 4H2238-AA, -1.07; with 4H3605-AA it was -1.6; in the assay with 4H2211-AA it was -0.565. Further, the interaction score with 4H3922-AA is -1.15; with 4H3664-AA, -1.82; with 4H4033-AA, -1.42; with 4H369-AA, -1.37; in the assay with 4H2536-AA, 1.92; in the assay with 4H2935-AA it was -1.25.
